Measurements published in PMC4623018, “Studies on the catalytic domains of multiple JmjC oxygenases using peptide substrates” (Epigenetics, 2014).
Ends that are not written are not given here. Me3 = trimethyl on the lysine side-chain amine

Molecular target: T1, KDM4A catalytic domain (human, UniProt O75164 1-359)
T1 construct: The limits 1-359 are those of the KDM4A catalytic domain used in the activity assays; also called KDM4A (1–359); 4A(1–359); source: E. coli, purified as previously described
T1 sequence (looked up): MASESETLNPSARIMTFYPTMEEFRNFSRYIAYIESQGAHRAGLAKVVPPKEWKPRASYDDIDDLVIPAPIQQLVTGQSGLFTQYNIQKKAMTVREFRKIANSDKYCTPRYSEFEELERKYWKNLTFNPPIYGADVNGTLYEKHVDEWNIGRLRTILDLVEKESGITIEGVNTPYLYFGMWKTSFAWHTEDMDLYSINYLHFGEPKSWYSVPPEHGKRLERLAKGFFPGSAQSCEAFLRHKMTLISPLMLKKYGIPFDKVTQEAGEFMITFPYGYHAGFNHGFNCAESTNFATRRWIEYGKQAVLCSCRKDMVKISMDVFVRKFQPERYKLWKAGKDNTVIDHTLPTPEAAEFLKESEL
Assay: crystal structure; KDM4A catalytic domain complexed with H3K27me3 peptides (25 residue and 5 residue)
Details: both partners purified

binding result: binds
B1: 5 residue H3K27me3 peptide (peptide, UniProt P68431 26-30, looked up)
peptide: ARK(Me3)SA
notes: histone H3 fragment, residues 25-29; also called H3(25–29)K27me3
